Experimental data taken from patent publication US20240116985A1, “STAPLED PEPTIDES AND METHODS THEREOF” (priority 2020, published 2024).
Starred links: 1 amine or outer side, 2 acyl side, 3 side chain; linkers in the order of their positions; H or OH if unused. Positions of bridges follow the written chain, without caps; N, C: chain ends. Non-standard residues stand in square brackets, D forms with d. Primed or numbered codes have the meaning given here. No end group written: not given here. ξ: configuration not given here. *: point of attachment. B5(15) = 2-amino-2-(pent-4-en-1-yl)hept-6-enoic acid (2,2-bis(4-pentenyl)glycine), stitching residue bearing two staples, C=CCCCC(CCCC=C)(N[*:1])C(=O)[*:2]; PyrS2″ = (S)-3-amino-1-((pent-4-en-1-yloxy)carbonyl)pyrrolidine-3-carboxylic acid (stapling residue), C=CCCCOC(=O)N1CC[C@@](N[*:1])(C(=O)[*:2])C1; B5(23) = 2-amino-2-(pent-4-en-1-yl)hept-6-enoic acid (2,2-bis(4-pentenyl)glycine), stitching residue, C=CCCCC(CCCC=C)(N[*:1])C(=O)[*:2]; B5(4) = 2,2-bis(4-pentenyl)glycine = 2-amino-2-(pent-4-en-1-yl)hept-6-enoic acid (stitching residue), C=CCCCC(CCCC=C)(N[*:1])C(=O)[*:2]; B5(5) = 2,2-bis(4-pentenyl)glycine, 2-amino-2-(pent-4-en-1-yl)hept-6-enoic acid (stitching residue), C=CCCCC(CCCC=C)(N[*:1])C(=O)[*:2]; B5(21) = 2-amino-2-(pent-4-en-1-yl)hept-6-enoic acid, bis(4-pentenyl)glycine (stitching residue), C=CCCCC(CCCC=C)(N[*:1])C(=O)[*:2]; TfeGA = (S)-2-amino-3-((carboxymethyl)(2,2,2-trifluoroethyl)amino)propanoic acid, O=C([C@H](CN(CC(=O)[*:3])CC(F)(F)F)N[*:1])[*:2]; PyrS2 = (S)-3-amino-1-((pent-4-en-1-yloxy)carbonyl)pyrrolidine-3-carboxylic acid, C=CCCCOC(=O)N1CC[C@@](N[*:1])(C(=O)[*:2])C1; B5(3) = 2,2-bis(4-pentenyl)glycine (stitching residue), C=CCCCC(CCCC=C)(N[*:1])C(=O)[*:2]; B5 = 2-amino-2-(pent-4-en-1-yl)hept-6-enoic acid, C=CCCCC(CCCC=C)(N[*:1])C(=O)[*:2]; Phe(3-COOH) = N[C@@H](Cc1cccc(C(=O)O)c1)C(=O)O; Phe(2-Cl) = N[C@@H](Cc1ccccc1Cl)C(=O)O; Bta = N[C@@H](Cc1csc2ccccc12)C(=O)O; Lys(iPr) = CC(C)NCCCC[C@H](N)C(=O)O; αAllylPro = C=CC[C@@]1(C(=O)O)CCCN1; tBuAla = CC(C)(C)C[C@H](N)C(=O)O; 2Thi = N[C@@H](Cc1cccs1)C(=O)O; 3Thi = N[C@@H](Cc1ccsc1)C(=O)O; Cha = N[C@@H](CC1CCCCC1)C(=O)O; S8 = C=CCCCCCC[C@](C)(N)C(=O)O; Thr(ol) = C[C@@H](O)[C@H](N)CO; hLeu = CC(C)CC[C@H](N)C(=O)O; ξβ3hD = NC(CC(=O)O)CC(=O)O; hSer = N[C@@H](CCO)C(=O)O; Aib = CC(C)(N)C(=O)O; iPr = CC(C)*

Columns and labels:
[1] = molecular target: full-length beta-Catenin (Uniprot ID P35222) (Homo sapiens (Human)) (UniProt P35222); assay: cell-based or functional assay
Target sequence in this assay (P35222 2-781 limits assumed): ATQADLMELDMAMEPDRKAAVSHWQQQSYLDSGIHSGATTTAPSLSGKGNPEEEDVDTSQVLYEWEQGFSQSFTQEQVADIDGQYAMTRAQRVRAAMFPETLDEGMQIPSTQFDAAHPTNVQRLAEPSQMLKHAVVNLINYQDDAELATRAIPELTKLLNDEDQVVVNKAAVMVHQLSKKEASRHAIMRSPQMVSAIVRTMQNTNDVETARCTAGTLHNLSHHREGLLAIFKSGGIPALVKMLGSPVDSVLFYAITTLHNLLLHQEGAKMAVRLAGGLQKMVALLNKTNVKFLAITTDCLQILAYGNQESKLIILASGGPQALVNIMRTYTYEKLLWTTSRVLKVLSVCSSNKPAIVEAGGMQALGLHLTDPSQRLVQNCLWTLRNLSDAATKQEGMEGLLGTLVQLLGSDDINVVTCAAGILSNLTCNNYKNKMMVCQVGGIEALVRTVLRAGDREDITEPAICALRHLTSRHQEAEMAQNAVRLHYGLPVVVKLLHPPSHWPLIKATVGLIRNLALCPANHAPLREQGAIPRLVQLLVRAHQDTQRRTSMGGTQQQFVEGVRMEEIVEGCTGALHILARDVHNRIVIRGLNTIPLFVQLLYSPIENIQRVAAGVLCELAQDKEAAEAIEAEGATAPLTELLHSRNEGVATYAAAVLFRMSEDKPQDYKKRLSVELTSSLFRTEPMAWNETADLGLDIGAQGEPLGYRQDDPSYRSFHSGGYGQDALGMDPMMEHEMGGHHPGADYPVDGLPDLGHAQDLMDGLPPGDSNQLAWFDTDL

[2] = molecular target: full-length beta-Catenin (Uniprot ID P35222) (Homo sapiens (Human)) (UniProt P35222); assay: fluorescence polarization competition; displacement of 5FAM-TCF4(10-53) from full-length beta-catenin
Target sequence in this assay (P35222 whole entry, one chain of several): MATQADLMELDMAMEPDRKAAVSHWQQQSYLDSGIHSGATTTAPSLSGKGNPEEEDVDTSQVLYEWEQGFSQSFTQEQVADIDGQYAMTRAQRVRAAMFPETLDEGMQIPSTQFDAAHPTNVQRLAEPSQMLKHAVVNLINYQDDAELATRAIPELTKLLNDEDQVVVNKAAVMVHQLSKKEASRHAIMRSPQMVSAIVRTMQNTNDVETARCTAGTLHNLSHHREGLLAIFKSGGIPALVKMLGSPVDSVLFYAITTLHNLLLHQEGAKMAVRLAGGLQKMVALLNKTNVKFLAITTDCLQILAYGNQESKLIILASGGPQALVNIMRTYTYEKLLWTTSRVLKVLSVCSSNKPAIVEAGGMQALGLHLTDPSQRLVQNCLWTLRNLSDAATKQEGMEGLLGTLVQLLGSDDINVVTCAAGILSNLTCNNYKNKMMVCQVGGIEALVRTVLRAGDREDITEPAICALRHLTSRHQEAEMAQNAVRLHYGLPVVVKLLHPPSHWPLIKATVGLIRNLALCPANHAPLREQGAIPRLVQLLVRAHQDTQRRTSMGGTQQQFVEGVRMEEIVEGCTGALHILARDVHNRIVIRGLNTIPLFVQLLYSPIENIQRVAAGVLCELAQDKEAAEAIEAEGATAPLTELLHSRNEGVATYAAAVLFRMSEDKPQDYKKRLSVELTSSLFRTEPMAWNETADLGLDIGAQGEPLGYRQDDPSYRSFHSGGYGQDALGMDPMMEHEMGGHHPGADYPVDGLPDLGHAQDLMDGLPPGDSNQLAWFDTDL

[3] = molecular target: full-length beta-Catenin (Uniprot ID P35222) (Homo sapiens (Human)) (UniProt P35222); assay: fluorescence polarization competition; full-length beta-catenin with 5FAM-TCF4(10-53) probe as competitor
Target sequence in this assay (P35222 2-781 limits assumed): as the sequence (P35222 2-781 limits assumed) above

[4] = molecular target: full-length beta-Catenin (Uniprot ID P35222) (Homo sapiens (Human)) (UniProt P35222); assay: fluorescence polarization competition: peptide titrated against 10 nM full-length beta-catenin + 10 nM 5FAM-TCF4(10-53) probe
Target sequence in this assay (P35222 2-781 limits assumed): as above

[5] = molecular target: full-length beta-Catenin (Uniprot ID P35222) (Homo sapiens (Human)) (UniProt P35222); assay: fluorescence polarization competition; displaces 5FAM-TCF4(10-53) from full-length beta-catenin
Target sequence in this assay (P35222 2-781 limits assumed): as above

[6] = molecular target: full-length beta-Catenin (Uniprot ID P35222) (Homo sapiens (Human)) (UniProt P35222); assay: fluorescence polarization competition; 10 nM full-length beta-catenin + 10 nM 5FAM-TCF4(10-53) probe
Target sequence in this assay (P35222 whole entry, one chain of several): as the sequence (P35222 whole entry, one chain of several) above

[7] = molecular target: full-length beta-Catenin (Uniprot ID P35222) (Homo sapiens (Human)) (UniProt P35222); assay: fluorescence polarization competition; full-length beta-catenin, competitor 5FAM-TCF4(10-53) probe
[8] = molecular target: full-length beta-Catenin (Uniprot ID P35222) (Homo sapiens (Human)) (UniProt P35222); assay: fluorescence polarization competition; full-length beta-catenin; competitor 5FAM-TCF4(10-53) probe
Target sequence in this assay (P35222 whole entry, one chain of several): as above

[9] = molecular target: full-length beta-Catenin (Uniprot ID P35222) (Homo sapiens (Human)) (UniProt P35222); assay: fluorescence polarization competition; competitor 5FAM-TCF4(10-53) probe on full-length beta-catenin
Target sequence in this assay (P35222 whole entry, one chain of several): as above

[10] = molecular target: beta-catenin (Homo sapiens (Human)) (UniProt P35222); assay: fluorescence polarization competition; full-length beta-catenin with 5FAM-TCF4(10-53) probe as competitor
Sequence of beta-catenin (Homo sapiens (Human)) (P35222 whole entry): as the sequence (P35222 whole entry, one chain of several) above

Binder	IC50 [7] [nM]	EC50 [8] [nM]	further results
Ac-[αAllylPro]DI[B5(4)]DEAA[2Thi]Q[S8]F[Bta]Q-NH2 (staple 1-4, 4-11) [I-485]	–	–	NanoBRET Abs IC50 [1]: 11300 nM; EC50 [2]: 34 nM; IC50 [3]: 34 nM
Ac-[αAllylPro]F[tBuAla][B5]DDAADN[PyrS2][3Thi][Bta]H-NH2 (staple 1-4, 4-11) [I-796]	–	–	EC50 [4]: 8140 nM
Ac-[αAllylPro]D[tBuAla][B5(5)][3Thi][TfeGA]AAFN[PyrS2″]D[Bta]Q-NH2 (staple 1-4, 4-11) [I-1001]	–	–	EC50 [5]: 5530 nM; IC50 [6]: 7220 nM
Ac-[αAllylPro][ξβ3hD][tBuAla][B5(4)]D[TfeGA]AAFN[PyrS2″][3Thi][Bta]Q-NH2 (staple 1-4, 4-11) [I-1161]	24	24	–
Ac-[αAllylPro]D[tBuAla][B5(4)]DTAAFT[PyrS2″][3Thi][Bta]Q-NH2 (staple 1-4, 4-11) [I-1166]	14	14	–
Ac-[αAllylPro]D[tBuAla][B5(4)]DTAAFL[PyrS2″][3Thi][Bta]Q-NH2 (staple 1-4, 4-11) [I-1167]	34	34	–
Ac-[αAllylPro]D[tBuAla][B5(21)]DTAAFT[PyrS2″][Phe(2-Cl)][Bta]Q-NH2 (staple 1-4, 4-11) [I-1168]	25	25	–
Ac-[αAllylPro]D[tBuAla][B5(21)]DTAAFL[PyrS2″][Phe(2-Cl)][Bta]Q-NH2 (staple 1-4, 4-11) [I-1169]	159	159	–
Ac-[αAllylPro]D[tBuAla][B5(4)]DTAAFT[PyrS2″][3Thi][Bta]S-NH2 (staple 1-4, 4-11) [I-1170]	15	15	–
Ac-[αAllylPro]D[tBuAla][B5(21)]DTAAFL[PyrS2″][3Thi][Bta]S-NH2 (staple 1-4, 4-11) [I-1171]	70	70	–
Ac-[αAllylPro]D[tBuAla][B5(21)]DTAAFL[PyrS2″][Phe(2-Cl)][Bta]S-NH2 (staple 1-4, 4-11) [I-1172]	45	45	–
Ac-[αAllylPro]D[Cha][B5(4)]DTAAFT[PyrS2″][3Thi][Bta]Q-NH2 (staple 1-4, 4-11) [I-1173]	12	12	–
Ac-[αAllylPro]D[Cha][B5(21)]DTAAFL[PyrS2″][3Thi][Bta]Q-NH2 (staple 1-4, 4-11) [I-1174]	43	43	–
Ac-[αAllylPro]D[Cha][B5(21)]DTAAFT[PyrS2″][Phe(2-Cl)][Bta]Q-NH2 (staple 1-4, 4-11) [I-1175]	24	24	–
Ac-[αAllylPro]D[Cha][B5(21)]DTAAFL[PyrS2″][Phe(2-Cl)][Bta]Q-NH2 (staple 1-4, 4-11) [I-1176]	169	169	–
Ac-[αAllylPro]D[tBuAla][B5(4)]DD[Aib]AFL[PyrS2″][3Thi][Bta]Q-NH2 (staple 1-4, 4-11) [I-1177]	25	25	–
Ac-[αAllylPro]D[tBuAla][B5(21)]DDA[Aib]FL[PyrS2″][3Thi][Bta]Q-NH2 (staple 1-4, 4-11) [I-1178]	54.5	54.5	–

Binder	IC50 [7] [nM]	EC50 [8] [nM]	further results
Ac-[αAllylPro]D[tBuAla][B5(21)]DD[Aib][Aib]FL[PyrS2″][3Thi][Bta]Q-NH2 (staple 1-4, 4-11; also: earlier eluting HPLC peak (staple isomer composition)) [I-1179]	346	346	–
Ac-[αAllylPro]D[tBuAla][B5(4)]DD[Lys(iPr)]AFL[PyrS2″][Phe(2-Cl)][Bta][Thr(ol)] (staple 1-4, 4-11) [I-1313]	–	–	EC50 [7]: 12 nM; IC50 [9]: 12 nM
[αAllylPro]D[tBuAla][B5]DDAAFF[PyrS2][Cha][Bta]Q-NH2 (staple 1-4, 4-11) [I-1331]	–	–	EC50 [7]: 75 nM; IC50 [9]: 75 nM
Ac-[αAllylPro]D[tBuAla][B5(4)]DFAAFL[PyrS2″][3Thi][Bta]Q-NH2 (staple 1-4, 4-11) [I-1441]	327	–	EC50 [10]: 327 nM
Ac-[αAllylPro]D[tBuAla][B5(4)]DLAAFL[PyrS2″][3Thi][Bta]Q-NH2 (staple 1-4, 4-11) [I-1444]	6560	–	EC50 [10]: 6560 nM
Ac-[αAllylPro]D[hLeu][B5(15)]DEAAFL[S8]F[Bta]Q-NH2 (staple 1-4, 4-11) [I-1536]	–	–	IC50 [5]: 42 nM
Ac-[αAllylPro]D[hLeu][B5(15)]DEAAF[hSer][S8]F[Bta]Q-NH2 (staple 1-4, 4-11; not fully specified; printed as Ac-PL3-Asp-Hleu-B5-Asp-Glu-Ala-Ala-Phe-Hse-S8-Phe-BztA-Gln-NH2) [I-1537]	–	–	IC50 [5]: 31 nM
Ac-[αAllylPro]D[hLeu][B5(15)]DEAAF[hSer][S8]F[Bta]Q-NH2 (staple 1-4, 4-11; not fully specified; printed as Ac-PL3-Asp-Hleu-B5-Asp-Glu-Ala-Ala-Phe-Hse-S8-Phe-BztA-Gln-NH2) [I-1538]	–	–	IC50 [5]: 21 nM
Ac-[αAllylPro]D[tBuAla][B5(23)]NNAAFN[PyrS2][3Thi][Bta]Q-NH2 (staple 1-4, 4-11) [I-1555]	–	–	IC50 [5]: 180 nM
Ac-[αAllylPro]D[tBuAla][B5(4)]DHAA[Phe(3-COOH)]L[PyrS2″][3Thi][Bta]Q-NH2 (staple 1-4, 4-11; also: later eluting HPLC isomer composition) [I-2123]	–	–	IC50 [9]: 12 nM
Ac-[αAllylPro]D[tBuAla][B5(4)]DYAA[Phe(3-COOH)][hSer][PyrS2″][3Thi][Bta]Q-NH2 (staple 1-4, 4-11; also: earlier eluting HPLC isomer composition) [I-2124]	–	–	IC50 [9]: 29 nM
Ac-[αAllylPro]D[tBuAla][B5(4)]DYAA[Phe(3-COOH)][hSer][PyrS2″][3Thi][Bta]Q-NH2 (staple 1-4, 4-11; also: later eluting HPLC isomer composition) [I-2125]	–	–	IC50 [9]: 26 nM
Ac-[αAllylPro]D[tBuAla][B5(4)]DYAA[Phe(3-COOH)]L[PyrS2″][3Thi][Bta]Q-NH2 (staple 1-4, 4-11) [I-2126]	–	–	IC50 [9]: 68 nM
Ac-[αAllylPro]D[tBuAla][B5(4)]DWAA[Phe(3-COOH)]N[PyrS2″][3Thi][Bta]Q-NH2 (staple 1-4, 4-11) [I-2127]	–	–	IC50 [9]: 36 nM
Ac-[αAllylPro]D[tBuAla][B5(4)]DWAA[Phe(3-COOH)][hSer][PyrS2″][3Thi][Bta]Q-NH2 (staple 1-4, 4-11) [I-2128]	–	–	IC50 [9]: 29 nM
Ac-[αAllylPro]D[tBuAla][B5(4)]DWAA[Phe(3-COOH)]L[PyrS2″][3Thi][Bta]Q-NH2 (staple 1-4, 4-11) [I-2129]	–	–	IC50 [9]: 105 nM
